Where two headings read alike, the source gives them in different places.

The term EC50 denotes the concentration that produces a half-maximal response.

Data set [1] relates to luciferase reporter gene in HEK293 cells. As to the kind of experiment: Transcriptional regulation assay (split transcription factor), luciferase reporter. Particulars: for EC50: simeprevir dose-response. It is filed as cell-based, human. The text has this:
The iDimerize regulated transcription system (Takara) was used to test the ability of PRSIM-based CIDs to regulate gene expression. […] The DBD and AD are separately fused to the two protein components of a CID such that, only in the presence of the small molecule inducer, the AD is brought into close proximity to the DBD, recruiting the transcription machinery to a promoter harbouring the DBD recognition sites. The iDimerize regulated transcription system (Takara) provides two vectors, pHet-Act1-2 and pZFHD1-Luciferase. The pHet-Act1-2 vector encodes two fusion proteins that represent a positive control: one is a fusion between FRB (T82L mutant; DmrC) and an activation domain (AD) from human p65 (SEQ ID NO: 42); the other is a fusion protein comprised of a DNA binding domain (ZFHD1) (SEQ ID NO: 43) fused to three tandem copies of FKBP12 (DmrA). These sequences are preceded by a CMV promoter and separated by an internal ribosome entry site (IRES). The ZFHD1 vector encodes luciferase preceded by an inducible promoter consisting of 12 copies of the recognition sequence of the ZFHD1 DBD upstream of a minimal IL-2 promoter. Binding of the DBD to its recognition sequence and recruitment of the transcriptional machinery by the AD initiates transcription of the luciferase reporter gene. The DNA sequence encoding HCV NS3/4A PR (S139A) was purchased as a DNA string from GeneArt and cloned into the pHet-Act1-2 vector as either an N-terminal fusion partner to the activation domain (SEQ ID NO: 44) (replacing FRB) or as a C-terminal fusion partner to the DNA binding domain (SEQ ID NO: 45) (replacing FKBP12) with flexible linkers (TGGGGSGGGGS (SEQ ID NO: 185) and SA, respectively) between the fusion partners. Subsequently, sequences encoding one copy of a panel of 12 PRSIM molecules (Table 2) were purchased as DNA strings from GeneArt and were cloned using Gibson assembly into the HCV NS3/4A PR (S139A)-containing pHetAct1-2 constructs described above, as a fusion partner to either the DBD (SEQ ID NOS: 46-56) or AD (SEQ ID NOS: 57-67), respectively. An equivalent construct was generated to replace the three copies of FKBP12 in pHet-Act1-2 with a single copy of FKBP12. The sequence of the constructs encoding both activation domain and DNA-binding domain fusion proteins was confirmed by Sanger sequencing of the entire coding region.
Sequences encoding the three HCV NS3/4A PR (S139A) mutants (Table 6) were purchased as DNA strings from GeneArt and were cloned using Gibson assembly into the pHetAct1-2 HCV NS3/4A PR (S139A)-PRSIM_23 (3 tandem copy) construct described above as a fusion partner to the AD (SEQ ID NOs: 211-216).
All transcriptional regulation assays were performed in adherent HEK293 cells cultured in 384-well plates. Cells enzymatically dissociated from a tissue culture flask were counted and plated at 7.5×10^3 cells/well in a 384-well plate. The plates were incubated overnight at 37° C. with 5% CO2 to allow the cells to adhere. On day 2, the cells were co-transfected with a pHet-Act1-2 plasmid (containing the FRB:FKBP12 control fusion proteins (Clontech) or the HCV NS3/4A PR (S139A):PRSIM fusion proteins) and a pZFHD1 plasmid (encoding either luciferase (Clontech) or NanoLuc-PEST (as described above)) using Lipofectamine LTX (ThermoFisher). On day 3, wells were treated with different concentrations of either A/C heterodimeriser (for the FRB:FKBP12 control), simeprevir or with vehicle control, and 24 hours later luminescence was quantified with an Envision plate reader immediately following addition of SteadyGlo luciferase substrate (Promega) or Nano-Glo Vivazine luciferase substrate (Promega). Alternatively, reverse transfections were carried out on Day 1, addition of dimeriser on Day 2 and luminescence quantified 24 hours later on Day 3.
Luminescence readings were converted into fold-change by dividing the signal in the presence of simeprevir by that in the absence of simeprevir.
(In general: In a reporter assay the amount or activity of a reporter protein is the signal.)

Data set [2] has as its system fluorogenic HCV protease FRET substrate. As to the kind of experiment: HCV NS3/4A PR protease activity assay (fluorogenic peptide cleavage). It is filed as biochemical. Particulars: compared to WT. How it is done: To assess enzyme activity, cleavage of a fluorogenic HCV protease FRET substrate with an EDANS-DABCYL donor-quencher pair by purified HCV NS3/4A PR and the S139A mutant (RET 51, AnaSpec) was measured. When in close proximity (10-100 Å), as would be the case for the intact peptide, EDANS is excited at 340 nm, and the energy emitted from EDANS (at 490 nm) is quenched by DABCYL. Cleavage of the peptide by the HCV NS3/4A PR separates DABCYL from EDANS, allowing detection of fluorescence at 490 nm.
Serial dilutions of HCV NS3/4A PR and the active site mutant S139A in assay buffer (HEPES pH 7.8, 5 mM DTT, 100 mM NaCl, 10% glycerol, 0.01% CHAPS) were incubated with the fluorogenic substrate at room temperature. Fluorescence was measured after 3 hours using a PerkinElmer Envision plate reader (excitation 340 nm, emission 490 nm).

Data set [3] concerns GFP-PEST expression in monoclonal HEK293 cell lines. As to the kind of experiment: Flow cytometry kinetics of GFP-PEST expression after simeprevir removal. Particulars: 24h simeprevir induction, then removal. Type of data set: cell-based, human. (Flow cytometry measures light scatter and fluorescence of single cells or particles in a stream.)
In data set [4] the test system is split Nanoluciferase (LgBiT/SmBiT) reconstitution in HEK293 cells. As to the kind of experiment: Split NanoLuc reconstitution assay (NanoBiT). Particulars: 100 nM simeprevir over no simeprevir; LgBiT fused to the C-terminus of the PRSIM binding module. It is filed as cell-based, human. The protocol: The ability of the PRSIM binding molecules to promote dimerization of two proteins to which they are fused was assessed with the NanoBiT system (Promega) that measures the reconstitution of a split Nanoluciferase (NanoLuc) and the resultant luminescence upon supply of a live cell imaging Nano-Glo NanoLuc substrate (FIG. 8). In the NanoBiT system, one interaction partner is fused via a flexible linker to an 18 kDa fragment of NanoLuc termed LgBiT (for “large bit”) (SEQ ID NO: 16) and the other is fused via an equivalent linker to a 1.3 kDa peptide SmBiT (“small bit”) (SEQ ID NO: 17). LgBit and SmBiT have a low affinity (190 μM) for each other in the absence of interacting partners and will not reconstitute to form an active luciferase enzyme. Once fused to the interacting proteins of a CID and supplied with inducer, they will reconstitute, and luminescence can be measured. The NanoBiT system supplies two sets of control proteins fused to LgBiT and SmBiT: a set of constitutively interacting proteins PRKAR2A:PRKACA; and the FRB:FKBP12 pair whose dimerization can be induced with rapamycin.
To establish the optimal orientation of the HCV NS3/4A PR (S139A) and PRSIM components, constructs whereby HCV NS3/4A PR (S139A) was fused at either the N- or C-terminus to SmBiT (SEQ ID NOs: 18 and 19, respectively) and a parallel set of constructs for each PRSIM binding module fused to either the N- or C-terminus of LgBiT (SEQ ID NOS: 20-30 and 31-41, respectively). The NanoBiT kit (Promega) supplies a set of vectors enabling these constructs to be generated. DNA strings encoding HCV NS3/4A PR (S139A) and the PRSIM molecules were purchased from GeneArt and amplified via PCR with primers with extensions containing restriction sites compatible with the NanoBiT vectors and were cloned via Gibson assembly. All constructs were verified via Sanger sequencing of the entire coding sequence.
All NanoBiT screens were performed in adherent HEK293 cells cultured in 96-well plates. Cells enzymatically dissociated from a tissue culture flask were counted and plated at 2×10^4 cells/well in a white, opaque-bottomed 96-well plate (Costar 3917). The plates were incubated overnight at 37° C. with 5% CO2 to allow the cells to adhere. On day 2, plasmids were co-transfected with Lipofectamine LTX (ThermoFisher) at a final concentration of 100 ng/well (50 ng/plasmid, one encoding a SmBiT fusion, the other a LgBiT fusion). On day 3, wells were treated with 100 nM of the appropriate small molecule inducer (rapamycin (FRB:FKBP12) or simeprevir (HCV NS3/4A PR:PRSIM)) or vehicle control, and luminescence was quantified with an Envision plate reader immediately following addition of Nano-Glo Live Cell Substrate (Promega).

B1: “WT” S139A: HCV NS3/4A protease with active site mutation S139A, SEQ ID NO: 2 (protein)
chain: MKKKGSVVIVGRINLSGDTAYAQQTRGEEGCQETSQTGRDKNQVEGEVQIVSTATQTFLATSINGVLWTVYHGAGTRTIASPKGPVTQMYTNVDKDLVGWQAPQGSRSLTPCTCGSSDLYLVTRHADVIPVRRRGDSRGSLLSPRPISYLKGSAGGPLLCPAGHAVGIFRAAVSTRGVAKAVDFIPVESLETTMRSP
modifications: HCV NS3/4A PR (S139A)
For B1, the Max fold change in data set [1] (protease variant-AD and DBD-PRSIM_23 (three tandem copies)) turned out to be 6973. The enzymatic activity result in data set [2] is listed as “No enzymatic activity could be detected at most concentrations tested”. For the same molecule, in data set [3], the “GFP fluorescence after simeprevir removal” value is “retained high GFP-fluorescence over 24 h”.

B2: PRSIM_01: scFv PRSIM binding molecule, SEQ ID NO: 10 (protein)
scFv: QVQLVQSGAEVKKPGSSVKVSCKASGGTFSSYAISWVRQAPGQGLEWMGGIIPIFGTANYAQKFQGRVTITADESTSTAYMELSSLRSEDTAVYYCARGQGYITVFDYWGQGTLVTVSSGGGGSGGGGSGGGGSAQSVLTQPPSASGTPGQRVTISCSGSSSNIGSNTVNWYQQLPGTAPKLLIYSNNQRPSGVPDRFSGSKSGTSASLAISGLQSEDEADYYCAAWDHHWEQVVFGGGTKLTVL
modifications: PRSIM_01
For B2, the Max fold change was found to be 5.83 in data set [1] (PRSIM fused to AD, one copy) and 86.76 in data set [1] (PRSIM fused to DBD, one copy). Moreover, the EC50 entry in data set [1] (PRSIM fused to AD, one copy) is “Ambiguous”; in data set [1] (PRSIM fused to DBD, one copy, read-out: EC50), 6.99 nM. Besides, the fold-change in luminescence in data set [4] stood at 16 fold.

Source of the values: patent US20220380801A1, “TRIPARTITE SYSTEMS FOR PROTEIN DIMERIZATION AND METHODS OF USE” (priority 2019, published 2022).
